The labels stand for the following.
B1: full-length human CEMIP (cell migration-inducing and hyaluronan-binding protein) (natural protein)
chain: TVAAGCPDQSPELQPWNPGHDQDHHVHIGQGKTLLLTSSATVYSIHISEGGKLVIKDHDEPIVLRTRHILIDNGGELHAGSALCPFQGNFTIILYGRADEGIQPDPYYGLKYIGVGKGGALELHGQKKLSWTFLNKTLHPGGMAEGGYFFERSWGHRGVIVHVIDPKSGTVIHSDRFDTYRSKKESERLVQYLNAVPDGRILSVAVNDEGSRNLDDMARKAMTKLGSKHFLHLGFRHPWSFLTVKGNPSSSVEDHIEYHGHRGSAAARVFKLFQTEHGEYFNVSLSSEWVQDVEWTEWFDHDKVSQTKGGEKISDLWKAHPGKICNRPIDIQATTMDGVNLSTEVVYKKGQDYRFACYDRGRACRSYRVRFLCGKPVRPKLTVTIDTNVNSTILNLEDNVQSWKPGDTLVIASTDYSMYQAEEFQVLPCRSCAPNQVKVAGKPMYLHIGEEIDGVDMRAEVGLLSRNIIVMGEMEDKCYPYRNHICNFFDFDTFGGHIKFALGFKAAHLEGTELKHMGQQLVGQYPIHFHLAGDVDERGGYDPPTYIRDLSIHHTFSRCVTVHGSNGLLIKDVVGYNSLGHCFFTEDGPEERNTFDHCLGLLVKSGTLLPSDRDSKMCKMITEDSYPGYIPKPRQDCNAVSTFWMANPNNNLINCAAAGSEETGFWFIFHHVPTGPSVGMYSPGYSEHIPLGKFYNNRAHSNYRAGMIIDNGVKTTEASAKDKRPFLSIISARYSPHQDADPLKPREPAIIRHFIAYKNQDHGAWLRGGDVWLDSCRFADNGIGLTLASGGTFPYDDGSKQEIKNSLFVGESGNVGTEMMDNRIWGPGGLDHSGRTLPIGQNFPIRGIQLYDGPINIQNCTFRKFVALEGRHTSALAFRLNNAWQSCPHNNVTGIAFEDVPITSRVFFGEPGPWFNQLDMDGDKTSVFHDVDGSVSEYPGSYLTKNDNWLVRHPDCINVPDWRGAICSGCYAQMYIQAYKTSNLRMKIIKNDFPSHPLYLEGALTRSTHYQQYQPVVTLQKGYTIHWDQTAPAELAIWLINFNKGDWIRVGLCYPRGTTFSILSDVHNRLLKQTSKTGVFVRTLQMDKVEQSYPGRSHYYWDEDSGLLFLKLKAQNEREKFAFCSMKGCERIKIKALIPKNAGVSDCTATAYPKFTERAVVDVPMPKKLFGSQLKTKDHFLEVKMESSKQHFFHLWNDFAYIEVDGKKYPSSEDGIQVVVIDGNQGRVVSHTSFRNSILQGIPWQLFNYVATIPDNSIVLMASKGRYVSRGPWTRVLEKLGADRGLKLKEQMAFVGFKGSFRPIWVTLDTEDHKAKIFQVVPIPVVKKKKL
B2: recombinant human secreted protein acidic and rich in cysteine (natural protein)
chain: APQQEALPDETEVVEETVAEVTEVSVGANPVQVEVGEFDDGAEETEEEVVAENPCQNHHCKHGKVCELDENNTPMCVCQDPTSCPAPIGEFEKVCSNDNKTFDSSCHFFATKCTLEGTKKGHKLHLDYIGPCKYIPPCLDSELTEFPLRMRDWLKNVLVTLYERDEDNNLLTEKQKLRVKKIHENEKRLEAGDHPVELLARDFEKNYNMYIFPVHWQFGQLDQHPIDGYLSHTELAPLRAPLIPMEHCTTRFFETCDLDNDKYIALDEWAGCFGIKQKDIDKDLVI
B3: recombinant human high-mobility group protein B2 (natural protein)
chain: MGKGDPNKPRGKMSSYAFFVQTCREEHKKKHPDSSVNFAEFSKKCSERWKTMSAKEKSKFEDMAKSDKARYDREMKNYVPPKGDKKGKKKDPNAPKRPPSAFFLFCSEHRPKIKSEHPGLSIGDTAKKLGEMWSEQSAKDKQPYEQKAAKLKEKYEKDIAAYRAKGKSEAGKKGPGRPTGSKKKNEPEDEEEEEEEEDEDEEEEDEDEE
B4: recombinant human insulin-like growth factor-binding protein 7 (natural protein)
chain: SSSDTCGPCEPASCPPLPPLGCLLGETRDACGCCPMCARGEGEPCGGGGAGRGYCAPGMECVKSRKRRKGKAGAAAGGPGVSGVCVCKSRYPVCGSDGTTYPSGCQLRAASQRAESRGEKAITQVSKGTCEQGPSIVTPPKDIWNVTGAQVYLSCEVIGIPTPVLIWNKVKRGHYGVQRTELLPGDRDNLAIQTRGGPEKHEVTGWVLVSPLSKEDAGEYECHASNSQGQASASAKITVVDALHEIPVKKGEGAEL
B5: recombinant human slit homolog 2 protein (ligand)
chain: QCSCSGSTVDCHGLALRSVPRNIPRNTERLDLNGNNITRITKTDFAGLRHLRVLQLMENKISTIERGAFQDLKELERLRLNRNHLQLFPELLFLGTAKLYRLDLSENQIQAIPRKAFRGAVDIKNLQLDYNQISCIEDGAFRALRDLEVLTLNNNNITRLSVASFNHMPKLRTFRLHSNNLYCDCHLAWLSDWLRQRPRVGLYTQCMGPSHLRGHNVAEVQKREFVCSGHQSFMAPSCSVLHCPAACTCSNNIVDCRGKGLTEIPTNLPETITEIRLEQNTIKVIPPGAFSPYKKLRRIDLSNNQISELAPDAFQGLRSLNSLVLYGNKITELPKSLFEGLFSLQLLLLNANKINCLRVDAFQDLHNLNLLSLYDNKLQTIAKGTFSPLRAIQTMHLAQNPFICDCHLKWLADYLHTNPIETSGARCTSPRRLANKRIGQIKSKKFRCSAKEQYFIPGTEDYRSKLSGDCFADLACPEKCRCEGTTVDCSNQKLNKIPEHIPQYTAELRLNNNEFTVLEATGIFKKLPQLRKINFSNNKITDIEEGAFEGASGVNEILLTSNRLENVQHKMFKGLESLKTLMLRSNRITCVGNDSFIGLSSVRLLSLYDNQITTVAPGAFDTLHSLSTLNLLANPFNCNCYLAWLGEWLRKKRIVTGNPRCQKPYFLKEIPIQDVAIQDFTCDDGNDDNSCSPLSRCPTECTCLDTVVRCSNKGLKVLPKGIPRDVTELYLDGNQFTLVPKELSNYKHLTLIDLSNNRISTLSNQSFSNMTQLLTLILSYNRLRCIPPRTFDGLKSLRLLSLHGNDISVVPEGAFNDLSALSHLAIGANPLYCDCNMQWLSDWVKSEYKEPGIARCAGPGEMADKLLLTTPSKKFTCQGPVDVNILAKCNPCLSNPCKNDGTCNSDPVDFYRCTCPYGFKGQDCDVPIHACISNPCKHGGTCHLKEGEEDGFWCICADGFEGENCEVNVDDCEDNDCENNSTCVDGINNYTCLCPPEYTGELCEEKLDFCAQDLNPCQHDSKCILTPKGFKCDCTPGYVGEHCDIDFDDCQDNKCKNGAHCTDAVNGYTCICPEGYSGLFCEFSPPMVLPRTSPCDNFDCQNGAQCIVRINEPICQCLPGYQGEKCEKLVSVNFINKESYLQIPSAKVRPQTNITLQIATDEDSGILLYKGDKDHIAVELYRGRVRASYDTGSHPASAIYSVETINDGNFHIVELLALDQSLSLSVDGGNPKIITNLSKQSTLNFDSPLYVGGMPGKSNVASLRQAPGQNGTSFHGCIRNLYINSELQDFQKVPMQTGILPGCEPCHKKVCAHGTCQPSSQAGFTCECQEGWMGPLCDQRTNDPCLGNKCVHGTCLPINAFSYSCKCLEGHGGVLCDEEEDLFNPCQAIKCKHGKCRLSGLGQPYCECSSGYTGDSCDREISCRGERIRDYYQKQQGYAACQTTKKVSRLECRGGCAGGQCCGPLRSKRRKYSFECTDGSSFVDEVEKVVKCGCTRCVS
B6: recombinant human hepatocyte growth factor activator (enzyme)
chain: QPGGNRTESPEPNATATPAIPTILVTSVTSETPATSAPEAEGPQSGGLPPPPRAVPSSSSPQAQALTEDGRPCRFPFRYGGRMLHACTSEGSAHRKWCATTHNYDRDRAWGYCVEATPPPGGPAALDPCASGPCLNGGSCSNTQDPQSYHCSCPRAFTGKDCGTEKCFDETRYEYLEGGDRWARVRQGHVEQCECFGGRTWCEGTRHTACLSSPCLNGGTCHLIVATGTTVCACPPGFAGRLCNIEPDERCFLGNGTGYRGVASTSASGLSCLAWNSDLLYQELHVDSVGAAALLGLGPHAYCRNPDNDERPWCYVVKDSALSWEYCRLEACESLTRVQLSPDLLATLPEPASPGRQACGRRHKKRTFLRPRIIGGSSSLPGSHPWLAAIYIGDSFCAGSLVHTCWVVSAAHCFSHSPPRDSVSVVLGQHFFNRTTDVTQTFGIEKYIPYTLYSVFNPSDHDLVLIRLKKKGDRCATRSQFVQPICLPEPGSTFPAGHKCQIAGWGHLDENVSGYSSSLREALVPLVADHKCSSPEVYGADISPNMLCAGYFDCKSDACQGDSGGPLACEKNGVAYLYGIISWGDGCGRLHKPGVYTRVANYVDWINDRIRPPRRLVAPS

Some results are limits rather than exact numbers.

This test has as its target soluble form of full-length LRP1 (low-density lipoprotein receptor-related protein 1) (human). In words: ELISA. On the technique in general: ELISA stands for enzyme-linked immunosorbent assay.
One may read the Kd as the free concentration of one partner at which half of the binding sites on the other are occupied at equilibrium, for simple one-to-one binding. High values mean weaker binding, low ones tighter binding. “recombinant human leukemia inhibitory factor (from UniProt P15018 23-202) (ligand)”: the Kd is greater than 200 nM.

“recombinant human ADAMTS1 (from UniProt Q9UHI8 50-967) (enzyme)”: the Kd stood at 20.2 nM.

Consider “recombinant human tumour necrosis factor-inducible gene 6 protein (from UniProt P98066 18-277) (natural protein)”, for which the Kd came to 11 nM.

Turning to “recombinant human high-mobility group protein B1 (from UniProt P09429 1-215) (natural protein)”, the Kd was determined as 6.4 nM.

In turn, B1 returned a Kd of 2.6 nM.

Turning to B2, the Kd worked out at 41 nM.

Consider B3, for which the Kd amounted to 3.9 nM.

In turn, B4 returned a Kd of 11 nM.

Molecule B5 yielded a Kd of 2 nM.

Turning to B6, the Kd was greater than 500 nM.

The values above are taken from paper doi:10.1101/2022.03.02.482546.
